Values belong to the binder of their own block, whether it stands above or below them.
Experiments:
[1] = biological target: T1, recombinant mouse matrilin-3 protein (mouse, UniProt O35701 28-481, limits assumed); assay: ELISA, coated recombinant matrilin-3, purified scFv-Fc titrated 230 nM to 0.014 nM, HRP anti-Fc
T1 construct: also called mouse recombinant matrilin-3; His-Tagged recombinant mouse matrilin-3
T1 sequence (looked up): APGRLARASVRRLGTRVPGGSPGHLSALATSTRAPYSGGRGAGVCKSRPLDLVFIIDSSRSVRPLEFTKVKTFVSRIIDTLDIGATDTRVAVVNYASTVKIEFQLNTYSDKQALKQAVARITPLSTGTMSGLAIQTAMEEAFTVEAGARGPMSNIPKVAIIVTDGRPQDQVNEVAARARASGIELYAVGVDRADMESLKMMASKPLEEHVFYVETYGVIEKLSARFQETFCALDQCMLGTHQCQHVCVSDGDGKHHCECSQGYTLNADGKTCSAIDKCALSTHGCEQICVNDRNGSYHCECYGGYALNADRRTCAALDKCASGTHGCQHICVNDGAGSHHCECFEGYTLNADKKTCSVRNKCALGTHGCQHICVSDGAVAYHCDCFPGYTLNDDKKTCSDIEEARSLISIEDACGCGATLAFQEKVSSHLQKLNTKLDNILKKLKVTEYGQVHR

[2] = biological target: T2, recombinant human matrilin-3 protein (human, UniProt O15232 29-486); assay: as above
T2 construct: Bought from R&D Systems; It was biotinylated through an Avi tag for the library selection; also called human recombinant matrilin-3
T2 sequence: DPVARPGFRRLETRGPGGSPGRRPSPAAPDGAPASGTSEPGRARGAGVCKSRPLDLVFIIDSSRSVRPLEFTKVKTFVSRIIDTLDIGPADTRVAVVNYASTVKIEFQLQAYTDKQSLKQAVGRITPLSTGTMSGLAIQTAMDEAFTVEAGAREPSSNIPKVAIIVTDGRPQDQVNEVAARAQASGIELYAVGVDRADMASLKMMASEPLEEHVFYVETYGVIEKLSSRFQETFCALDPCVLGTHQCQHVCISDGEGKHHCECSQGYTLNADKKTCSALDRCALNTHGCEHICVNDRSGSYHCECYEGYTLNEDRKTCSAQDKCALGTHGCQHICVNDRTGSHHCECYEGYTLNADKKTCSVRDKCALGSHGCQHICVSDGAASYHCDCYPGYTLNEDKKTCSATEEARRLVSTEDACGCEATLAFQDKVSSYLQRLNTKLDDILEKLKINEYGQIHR

EC50 [1]: < 1 nM
EC50 [2]: < 1 nM
B1: matrilin-3-binding antibody fragment 13 (clone 13 scFv fused with human IgG1 Fc fragment) (Fc fusion)
scFv: LVQSGAEVKKPGASVKVSCKASGGTFSSYAISWVRQAPGQGLEWMGGIIPIFGTANYAQKFQGRVTITADKSTSTAYMELSSLRSEDTAVYYCARGQGYWFDPWGQGTLVTVSSGGGGSGGGASSGGGSDVQLTQSPSSLSASVGDRVTITCQASQDISNYLNWYQQKPGKAPKLLIYDASNLETGVPSRFSGSGSGTDFTFTISSLQPEDIATYYCQQYDNLPLTFGGGTKLEIK
notes: Tested as scFv-Fc (culture supernatant or protein A purified); not shown: human IgG1 Fc fragment encoded by the modified pSecTagB vector; Avi tag downstream of the Fc in the vector

EC50 [1]: < 1 nM
EC50 [2]: < 1 nM
B2: matrilin-3-binding antibody fragment 22 (clone 22 scFv fused with human IgG1 Fc fragment) (Fc fusion)
scFv: LQQSGPGLVKPSQTLSLTCAISGDSVSSNSAAWNWIRQSPSRGLEWLGRTYYGSKWYNDYAPSVKSRISINPDTSKNQFSLQLNSVTPEDTAVYYCTRGIWNAFDIWGQGTMVTVSSGGGGSGGGASGGGGSSSELTQDPAVSVALGQTVRITCQGDSLRSYYASWYQQKPGQAPLLVIYDRDNRPSGIPDRFSGSSSGNTASLTITGAQAEDEADYYCQSYDTSLSWVFGGGTQLTVL
notes: Tested as scFv-Fc; not shown: human IgG1 Fc fragment encoded by the modified pSecTagB vector; Avi tag downstream of the Fc in the vector
